Here are results for five molecules from patent publication US20060121570A1 (published 2006).

Assay [1] deals with T1, platelet integrin αIIbβ3 (human platelet glycoprotein gpIIb/IIIa), purified (human, UniProt P08514 32-1039; P05106 27-788).
T1 construct: mature
The experiment in a line: inhibition of 125I-fibrinogen binding to purified αIIbβ3.

In assay [2] the target is T1, platelet integrin αIIbβ3 (human …). Put plainly: SPR (BIAcore), αIIbβ3 immobilized. On the technique in general: Surface plasmon resonance follows binding to a sensor surface in real time, without labels.

B1: circular peptide CSFGRNDSRNC derived from the HCDR3 of MTF-40 (peptide)
peptide: CSFGRNDSRNC
HELM: PEPTIDE1{[ac].C.S.F.G.R.N.D.S.R.N.C.[am]}$PEPTIDE1,PEPTIDE1,2:R3-12:R3$$$V2.0
SMILES: CC(=O)N[C@H]1CSSC[C@@H](C(N)=O)NC(=O)[C@H](CC(N)=O)NC(=O)[C@H](CCCNC(=N)N)NC(=O)[C@H](CO)NC(=O)[C@H](CC(=O)O)NC(=O)[C@H](CC(N)=O)NC(=O)[C@H](CCCNC(=N)N)NC(=O)CNC(=O)[C@H](Cc2ccccc2)NC(=O)[C@H](CO)NC1=O
notes: also called peptide 40 (circular)
One may read the IC50 as the concentration at which inhibition is half-maximal. Read a high IC50 as weaker potency in that assay. As for B1, the 50% inhibitory concentration (IC50) in assay [1] stood at 0.5 µM. On to Ac-GCSFGRNDSRNCY-NH2 (cysteine pairing not given here, also called peptide 40 (linear)) [linear peptide GCSFGRNDSRNCY derived from the HCDR3 of MTF-40], for which the IC50 in assay [1] was found to be 0.5 µM.

B2: fibrinogen (ligand)
chain 1: ADSGEGDFLAEGGGVRGPRVVERHQSACKDSDWPFCSDEDWNYKCPSGCRMKGLIDEVNQDFTNRINKLKNSLFEYQKNNKDSHSLTTNIMEILRGDFSSANNRDNTYNRVSEDLRSRIEVLKRKVIEKVQHIQLLQKNVRAQLVDMKRLEVDIDIKIRSCRGSCSRALAREVDLKDYEDQQKQLEQVIAKDLLPSRDRQHLPLIKMKPVPDLVPGNFKSQLQKVPPEWKALTDMPQMRMELERPGGNEITRGGSTSYGTGSETESPRNPSSAGSWNSGSSGPGSTGNRNPGSSGTGGTATWKPGSSGPGSTGSWNSGSSGTGSTGNQNPGSPRPGSTGTWNPGSSERGSAGHWTSESSVSGSTGQWHSESGSFRPDSPGSGNARPNNPDWGTFEEVSGNVSPGTRREYHTEKLVTSKGDKELRTGKEKVTSGSTTTTRRSCSKTVTKTVIGPDGHKEVTKEVVTSEDGSDCPEAMDLGTLSGIGTLDGFRHRHPDEAAFFDTASTGKTFPGFFSPMLGEFVSETESRGSESGIFTNTKESSSHHPGIAEFPSRGKSSSYSKQFTSSTSYNRGDSTFESKSYKMADEAGSEADHEGTHSTKRGHAKSRPV
chain 2: QGVNDNEEGFFSARGHRPLDKKREEAPSLRPAPPPISGGGYRARPAKAAATQKKVERKAPDAGGCLHADPDLGVLCPTGCQLQEALLQQERPIRNSVDELNNNVEAVSQTSSSSFQYMYLLKDLWQKRQKQVKDNENVVNEYSSELEKHQLYIDETVNSNIPTNLRVLRSILENLRSKIQKLESDVSAQMEYCRTPCTVSCNIPVVSGKECEEIIRKGGETSEMYLIQPDSSVKPYRVYCDMNTENGGWTVIQNRQDGSVDFGRKWDPYKQGFGNVATNTDGKNYCGLPGEYWLGNDKISQLTRMGPTELLIEMEDWKGDKVKAHYGGFTVQNEANKYQISVNKYRGTAGNALMDGASQLMGENRTMTIHNGMFFSTYDRDNDGWLTSDPRKQCSKEDGGGWWYNRCHAANPNGRYYWGGQYTWDMAKHGTDDGVVWMNWKGSWYSMRKMSMKIRPFFPQQ
chain 3: YVATRDNCCILDERFGSYCPTTCGIADFLSTYQTKVDKDLQSLEDILHQVENKTSEVKQLIKAIQLTYNPDESSKPNMIDAATLKSRKMLEEIMKYEASILTHDSSIRYLQEIYNSNNQKIVNLKEKVAQLEAQCQEPCKDTVQIHDITGKDCQDIANKGAKQSGLYFIKPLKANQQFLVYCEIDGSGNGWTVFQKRLDGSVDFKKNWIQYKEGFGHLSPTGTTEFWLGNEKIHLISTQSAIPYALRVELEDWNGRTSTADYAMFKVGPEADKYRLTYAYFAGGDAGDAFDGFDFGDDPSDKFFTSHNGMQFSTWDNDNDKFEGNCAEQDGSGWWMNKCHAGHLNGVYYQGGTYSKASTPNGYDNGIIWATWKTRWYSMKKTTMKIIPFNRLTIGEGQQHHLGGAKQAGDV
What is called kon is the second-order rate constant of association. Higher therefore signals faster complex formation. B2 had a kon in assay [2] of 600000 M⁻¹ s⁻¹. On to Ac-GCSFGRTDQRNCY-NH2 (cysteine pairing not given here, also called peptide 32 (linear)) [linear peptide GCSFGRTDQRNCY derived from the HCDR3 of MTF-32], for which the concentration for half-maximal inhibition (IC50) in assay [1] is 2 µM.

B3: circular peptide CSFGRTDQRNC derived from the HCDR3 of MTF-32 (peptide)
peptide: CSFGRTDQRNC
HELM: PEPTIDE1{[ac].C.S.F.G.R.T.D.Q.R.N.C.[am]}$PEPTIDE1,PEPTIDE1,2:R3-12:R3$$$V2.0
SMILES: CC(=O)N[C@H]1CSSC[C@@H](C(N)=O)NC(=O)[C@H](CC(N)=O)NC(=O)[C@H](CCCNC(=N)N)NC(=O)[C@H](CCC(N)=O)NC(=O)[C@H](CC(=O)O)NC(=O)[C@H]([C@@H](C)O)NC(=O)[C@H](CCCNC(=N)N)NC(=O)CNC(=O)[C@H](Cc2ccccc2)NC(=O)[C@H](CO)NC1=O
notes: also called peptide 32 (circular)
In turn, B3 displayed an IC50 in assay [1] of 2 µM.
